Values of other authors in paper PMC3332193.

Molecular target: EGFR (Homo sapiens) (UniProt P00533)

Kd: < 12 nM
Substance: EGF (from UniProt P01133)
